{"source": "paper PMC2907653", "key": {"[1]": {"substrate": "CN(C)c1nc2c(c(=O)[nH]1)[n+](C)cn2[C@@H]1O[C@H](COP(=O)(O)OP(=O)(O)OP(=O)(O)OC[C@H]2O[C@@H](n3cnc4c(=O)[nH]c(N)nc43)[C@H](O)[C@@H]2O)[C@@H](O)[C@H]1O", "test": "fluorimetric and HPLC hydrolysis kinetics", "type": "biochemical, Caenorhabditis elegans", "settings": "cleaved between β and γ phosphates; cap-binding pocket; pH 7.2; 20.0 °C"}, "[2]": {"substrate": "CC[n+]1cn([C@@H]2O[C@H](COP(=O)(O)OP(=O)(O)OP(=O)(O)OC[C@H]3O[C@@H](n4cnc5c(=O)[nH]c(N)nc54)[C@H](O)[C@@H]3O)[C@@H](O)[C@H]2O)c2nc(N)[nH]c(=O)c21", "test": "purified protein", "settings": "cleaved between β and γ phosphates; cap-binding pocket; pH 7.2; 20.0 °C"}, "[3]": {"substrate": "CN(C)c1nc2c(c(=O)[nH]1)[n+](C)cn2[C@@H]1O[C@H](COP(=O)(O)OP(=O)(O)OP(=O)(O)OC[C@H]2O[C@@H](n3cnc4c(N)ncnc43)[C@H](O)[C@@H]2O)[C@@H](O)[C@H]1O", "test": "purified protein", "settings": "cleaved between β and γ phosphates; pH 7.2; 20.0 °C"}, "[4]": {"substrate": "CNc1ncnc2c1ncn2[C@@H]1O[C@H](COP(=O)(O)OP(=O)(O)OP(=O)(O)OC[C@H]2O[C@@H](n3c[n+](C)c4c(=O)[nH]c(N)nc43)[C@H](O)[C@@H]2O)[C@@H](O)[C@H]1O", "test": "purified protein", "settings": "cleaved between β and γ phosphates; pH 7.2; 20.0 °C"}, "[5]": {"substrate": "CO[C@@H]1[C@H](O)[C@@H](COP(=O)(O)OP(=O)(O)OP(=O)(O)OC[C@H]2O[C@@H](n3c[n+](C)c4c(=O)[nH]c(N)nc43)[C@H](O)[C@@H]2O)O[C@H]1n1cnc2c(=O)[nH]c(N)nc21", "test": "purified protein", "settings": "cleaved between β and γ phosphates; pH 7.2; 20.0 °C"}, "[6]": {"substrate": "C[n+]1cn([C@@H]2O[C@H](COP(=O)(O)OP(=O)(O)OP(=O)(O)OC[C@H]3O[C@@H](n4c[n+](C)c5c(=O)[nH]c(N)nc54)[C@H](O)[C@@H]3O)[C@@H](O)[C@H]2O)c2nc(N)[nH]c(=O)c21", "test": "purified protein", "settings": "cleaved between β and γ phosphates; pH 7.2; 20.0 °C"}, "[7]": {"substrate": "C[n+]1cn([C@@H]2O[C@H](COP(=O)(O)OP(=O)(O)OP(=O)(O)OC[C@H]3O[C@@H](n4cnc5c(=O)[nH]c(N)nc54)C[C@@H]3O)[C@@H](O)[C@H]2O)c2nc(N)[nH]c(=O)c21", "test": "purified protein", "settings": "cleaved between β and γ phosphates; pH 7.2; 20.0 °C"}, "[8]": {"substrate": "C[n+]1cn([C@@H]2O[C@H](COP(=O)(O)OP(=O)(O)OP(=O)(O)OC[C@H]3O[C@@H](n4cnc5c(=O)[nH]c(N)nc54)[C@H](O)[C@@H]3O)[C@@H](O)[C@H]2O)c2nc(N)[nH]c(=O)c21", "test": "purified protein", "settings": "cleaved between β and γ phosphates; cap-binding pocket; pH 7.2; 20.0 °C"}, "[9]": {"substrate": "C[n+]1cn([C@@H]2O[C@H](COP(=O)(O)OP(=O)(O)OP(=O)(O)OC[C@H]3O[C@@H](n4cnc5c(N)ncnc54)[C@H](O)[C@@H]3O)[C@@H](O)[C@H]2O)c2nc(N)[nH]c(=O)c21", "test": "purified protein", "settings": "cleaved between β and γ phosphates; pH 7.2; 20.0 °C"}, "[10]": {"substrate": "Nc1nc2c(ncn2[C@@H]2O[C@H](COP(=O)(O)OP(=O)(O)OP(=O)(O)OC[C@H]3O[C@@H](n4c[n+](Cc5ccccc5)c5c(=O)[nH]c(N)nc54)[C@H](O)[C@@H]3O)[C@@H](O)[C@H]2O)c(=O)[nH]1", "test": "purified protein", "settings": "cleaved between β and γ phosphates; cap-binding pocket; pH 7.2; 20.0 °C"}}}
{"protein": "C. elegans scavenger decapping enzyme (DcpS) (Caenorhabditis elegans) (protein) MKRIADEELVREERAEESTQKWLQDAKFQEILGADSSHKSLFVLLSHPDGSQGILLANKSPFSEEKSDIEKLLATAQLQEISRNDIFGSYNIEIDPKLNLLKSQLIYPINDRLIAKYRQEEKFVIRETPELYETVTRPYIEKYQLNLNWVYNCLEKRSEVDKIVFEDPDNENGFVLLQDIKWDGKTLENLYVLAICHRHGLKSVRDLTGDDLEMLYNMRDKSLEAINQKYGLKTDQIKCYFHYQPSFYHLHVHFINLKYDAPASTTMSAILLDDVINNLELNPEHYKKSTLTFTRKNGDKLMEMFREALKN", "values": [{"measurement": "Km", "setting": "[1]", "value": 3.85, "unit": "µM"}, {"measurement": "Vmax", "setting": "[1]", "value": 4.65, "unit": "µmol/min/mg"}, {"measurement": "Km", "setting": "[2]", "value": 0.61, "unit": "µM"}, {"measurement": "Vmax", "setting": "[2]", "value": 3.12, "unit": "µmol/min/mg"}, {"measurement": "Km", "setting": "[3]", "value": 2.36, "unit": "µM"}, {"measurement": "Vmax", "setting": "[3]", "value": 2.06, "unit": "µmol/min/mg"}, {"measurement": "Km", "setting": "[4]", "value": 1.03, "unit": "µM"}, {"measurement": "Vmax", "setting": "[4]", "value": 1.33, "unit": "µmol/min/mg"}, {"measurement": "Km", "setting": "[5]", "value": 1.23, "unit": "µM"}, {"measurement": "Vmax", "setting": "[5]", "value": 1.66, "unit": "µmol/min/mg"}, {"measurement": "Km", "setting": "[6]", "value": 1.12, "unit": "µM"}, {"measurement": "Vmax", "setting": "[6]", "value": 0.91, "unit": "µmol/min/mg"}, {"measurement": "Km", "setting": "[7]", "value": 1.36, "unit": "µM"}, {"measurement": "Vmax", "setting": "[7]", "value": 2, "unit": "µmol/min/mg"}, {"measurement": "Km", "setting": "[8]", "value": 1.17, "unit": "µM"}, {"measurement": "Vmax", "setting": "[8]", "value": 1.53, "unit": "µmol/min/mg"}, {"measurement": "Km", "setting": "[9]", "value": 0.6, "unit": "µM"}, {"measurement": "Vmax", "setting": "[9]", "value": 1.09, "unit": "µmol/min/mg"}, {"measurement": "Km", "setting": "[10]", "value": 1.83, "unit": "µM"}, {"measurement": "Vmax", "setting": "[10]", "value": 3.06, "unit": "µmol/min/mg"}]}
